Tests used:
[1] = target: T1, recombinant VEGFR-1/Fc chimera (UniProt P17948 27-758); assay: ELISA; 96-well Maxisorp plates coated with 10 ug/ml sVEGFR-1; binding buffer PBS with 3% BSA, 1 mM CaCl2, 0.5 mM MgCl2; 2 ug/ml VEGFR-1/Fc, 4 ug/ml VEGFR-2/Fc or 1 ug/ml NRP-1/Fc added; detection with alkaline phosphatase-conjugated anti-human Fc antibody, absorbance at 405 nm; selected wells pre-incubated with 5 ug/ml D16F7 mAb for 30 min at room temperature; conditions: both partners purified
T1 construct: Vascular endothelial growth factor receptor-1 (VEGFR-1), extracellular region, fused with the Fc region of human immunoglobulins; Bought chimera; source: bought: R&D Systems

[2] = target: T2, recombinant VEGFR-2/Fc chimera (UniProt P35968 20-764); assay: as above; conditions: both partners purified
T2 construct: Vascular endothelial growth factor receptor-2 (VEGFR-2), extracellular region, fused with the Fc region of human immunoglobulins; Bought chimera; source: bought: R&D Systems
T2 sequence (P35968 20-764, stated change not applied): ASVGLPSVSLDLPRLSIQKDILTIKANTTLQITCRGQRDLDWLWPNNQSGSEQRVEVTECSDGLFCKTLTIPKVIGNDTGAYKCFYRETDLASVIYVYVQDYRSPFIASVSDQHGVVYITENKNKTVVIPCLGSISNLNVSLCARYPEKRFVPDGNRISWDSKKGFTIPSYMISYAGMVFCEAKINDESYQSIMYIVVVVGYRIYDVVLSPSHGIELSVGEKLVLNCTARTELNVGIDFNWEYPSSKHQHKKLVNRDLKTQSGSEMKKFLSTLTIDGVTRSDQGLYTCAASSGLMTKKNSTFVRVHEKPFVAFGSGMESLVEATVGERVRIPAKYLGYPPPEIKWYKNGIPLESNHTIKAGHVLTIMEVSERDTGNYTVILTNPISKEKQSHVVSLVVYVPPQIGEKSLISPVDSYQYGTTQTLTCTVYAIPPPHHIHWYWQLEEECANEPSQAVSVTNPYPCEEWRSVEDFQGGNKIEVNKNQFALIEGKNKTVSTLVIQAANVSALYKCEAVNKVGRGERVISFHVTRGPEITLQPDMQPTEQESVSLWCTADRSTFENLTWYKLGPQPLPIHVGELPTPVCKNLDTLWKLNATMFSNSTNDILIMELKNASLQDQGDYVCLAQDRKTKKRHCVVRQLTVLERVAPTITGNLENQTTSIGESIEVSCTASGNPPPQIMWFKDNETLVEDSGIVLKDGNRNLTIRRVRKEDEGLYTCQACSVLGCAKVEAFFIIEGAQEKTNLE

B1: native human soluble VEGFR-1 (sVEGFR-1) (receptor, UniProt P17948-2 27-687, looked up)
chain: SKLKDPELSLKGTQHIMQAGQTLHLQCRGEAAHKWSLPEMVSKESERLSITKSACGRNGKQFCSTLTLNTAQANHTGFYSCKYLAVPTSKKKETESAIYIFISDTGRPFVEMYSEIPEIIHMTEGRELVIPCRVTSPNITVTLKKFPLDTLIPDGKRIIWDSRKGFIISNATYKEIGLLTCEATVNGHLYKTNYLTHRQTNTIIDVQISTPRPVKLLRGHTLVLNCTATTPLNTRVQMTWSYPDEKNKRASVRRRIDQSNSHANIFYSVLTIDKMQNKDKGLYTCRVRSGPSFKSVNTSVHIYDKAFITVKHRKQQVLETVAGKRSYRLSMKVKAFPSPEVVWLKDGLPATEKSARYLTRGYSLIIKDVTEEDAGNYTILLSIKQSNVFKNLTATLIVNVKPQIYEKAVSSFPDPALYPLGSRQILTCTAYGIPQPTIKWFWHPCNHNHSEARCDFCSNNEESFILDADSNMGNRIESITQRMAIIEGKNKMASTLVVADSRISGIYICIASNKVGTVGRNISFYITDVPNGFHVNLEKMPTEGEDLKLSCTVNKFLYRDVTWILLRTVNNRTMHYSISKQKMAITKEHSITLNLTIMNVSLQDSGTYACRARNVYTGEEILQKKEITIRGEHCNKKAVFSRISKFKSTRNDCTTQSNVKH
notes: The methods call it 'Native human sVEGFR-1'; also called recombinant sVEGFR-1; source: bought: ReliaTech
B1: binds [1]; binds [2].
